Values quoted from earlier work in paper PMC6838683, “Discovery of Human Signaling Systems: Pairing Peptides to G Protein-Coupled Receptors” (Cell, 2019).
Where two headings read alike, the source gives them in different places. No end group written: not given here.

Biological target: human GPCRs
Parameters: method as in Guide to Pharmacology database
Details: max reported value, ref Guide to Pharmacology database, cited from earlier work
Excerpt: Supplement mmc1.xlsx, sheet "HumanGPCRLigands" | column: pKi_value; pKd_value; pEC50_value; pIC50_value

[1] = receptor RXFP2 (rxfp2_human, Q8WXD0)
[2] = receptor RXFP3 (rl3r1_human, Q9NSD7)
[3] = receptor RXFP4 (rl3r2_human, Q8TDU9)
[4] = receptor crfr2_human (CRHR2, Q13324)
[5] = receptor UTS2R (ur2r_human, Q9UKP6)
[6] = receptor OPRK1 (oprk_human, P41145)
[7] = receptor CCR1 (ccr1_human, P32246)
[8] = receptor CCR5 (ccr5_human, P51681)
[9] = receptor CCR3 (ccr3_human, P51677)
[10] = receptor CCR4 (ccr4_human, P51679)
[11] = receptor XCR1 (xcr1_human, P46094)

relaxin-3
pKi_value (receptor RXFP1 (rxfp1_human, Q9HBX9)): 8
pKi_value [1]: 7
pEC50_value [2]: 9.9
pIC50_value [2]: 9.6
pKi_value [2]: 8.9
pEC50_value [3]: 9
pIC50_value [3]: 9
pKi_value [3]: 9

secretin
pEC50_value (receptor sctr_human (SCTR, P47872)): 9.7

urocortin 1 (DNPSLSIDLTFHLLRTLLELARTQSQRERAEQNRIIFDSV; ends and bridges not checked; UniProt P55089 83-122, looked up)
pKd_value (receptor crfr1_human (CRHR1, P34998)): 9.5
pKd_value [4]: 9.6

urocortin 2 (IVLSLDVPIGLLQILLEQARARAAREQATTNARILARVGHC; ends and bridges not checked; UniProt Q96RP3 72-112, looked up)
pKd_value [4]: 8.6

urocortin 3 (FTLSLDVPTNIMNLLFNIAKAKNLRAQAAANAHLMAQI; not fully specified; ends and bridges not checked; UniProt Q969E3 120-157, looked up)
pKd_value [4]: 8

urotensin II-related peptide
pIC50_value [5]: 8.6
pKd_value [5]: 9.6

α-neoendorphin (YGGFLRKYPK; Alpha-neoendorphin; UniProt P01213 175-184, looked up)
pKi_value [6]: 10.2

β-CGRP
pEC50_value (receptor calcr_human (CALCR), Calcitonin receptors, Class B1 (Secretin)): 7.2

β-endorphin
pKi_value (receptor OPRD1 (oprd_human, P41143)): 8.3
pKi_value [6]: 7.9

β-neoendorphin (YGGFLRKYP)
pKi_value [6]: 7.9

γ-MSH
pKd_value (receptor mc3r_human (MC3R, P41968)): 8.5

B1: annexin I (protein, UniProt P04083 2-346, looked up)
Annexin A1: AMVSEFLKQAWFIENEEQEYVQTVKSSKGGPGSAVSPYPTFNPSSDVAALHKAIMVKGVDEATIIDILTKRNNAQRQQIKAAYLQETGKPLDETLKKALTGHLEEVVLALLKTPAQFDADELRAAMKGLGTDEDTLIEILASRTNKEIRDINRVYREELKRDLAKDITSDTSGDFRNALLSLAKGDRSEDFGVNEDLADSDARALYEAGERRKGTDVNVFNTILTTRSYPQLRRVFQKYTKYSKHDMNKVLDLELKGDIEKCLTAIVKCATSKPAFFAEKLHQAMKGVGTRHKALIRIMVSRSEIDMNDIKAFYQKMYGISLCQAILDETKGDYEKILVALCGGN
pKd_value (receptor fpr2_human (FPR2, P25090)): 6.5

B2: large neuromedin N (protein, UniProt P30990 24-148, looked up)
Large neuromedin N: SDSEEEMKALEADFLTNMHTSKISKAHVPSWKMTLLNVCSLVNNLNSPAEETGEVHEEELVARRKLPTALDGFSLEAMLTIYQLHKICHSRAFQHWELIQEDILDTGNDKNGKEEVIKRKIPYIL
modifications: Large neuromedin N
pIC50_value (receptor NTSR1 (ntr1_human, P30989)): 7.4

B3: INSL3 (protein, UniProt P51460 21-55; P51460 106-131, looked up)
Insulin-like 3 B chain: LGPAPTPEMREKLCGHHFVRALVRVCGGPRWSTEA
Insulin-like 3 A chain: AAATNPARYCCLSGCTQQDLLTLCPY
pKd_value [1]: 10.4
pKi_value [1]: 9.7

B4: CXCL7 (protein, UniProt P02775 59-128, looked up)
Neutrophil-activating peptide …: AELRCMCIKTTSGIHPKNIQSLEVIGKGTHCNQVEVIATLKDGRKICLDPDAPRIKKIVQKKLAGDESAD
modifications: Neutrophil-activating peptide 2
pIC50_value (receptor CXCR2 (cxcr2_human, P25025)): 9.3

B5: CCL14 (protein, UniProt Q16627 20-93, looked up)
C-C motif chemokine 14: TKTESSSRGPYHPSECCFTYTTYKIPRQRIMDYYETNSQCSKPGIVFITKRGHSVCTNPSDKWVQDYIKDMKEN
pKi_value [7]: 7.4
pKi_value [8]: 7.2

B6: CCL15 (protein, UniProt Q16663 22-113, looked up)
C-C motif chemokine 15: QFTNDAETELMMSKLPLENPVVLNSFHFAADCCTSYISQSIPCSLMKSYFETSSECSKPGVIFLTKKGRQVCAKPSGPGVQDCMKKLKPYSI
pIC50_value [7]: 7.9
pIC50_value [9]: 8.6

B7: CCL23 (protein, UniProt P55773 22-120, looked up)
C-C motif chemokine 23: RVTKDAETEFMMSKLPLENPVLLDRFHATSADCCISYTPRSIPCSLLESYFETNSECSKPGVIFLTKKGRRFCANPSDKQVQVCMRMLKLDTRIKTRKN
pKi_value [7]: 8.9

B8: CCL4 (protein, UniProt P13236 24-92, looked up)
C-C motif chemokine 4: APMGSDPPTACCFSYTARKLPRNFVVDYYETSSLCSQPAVVFQTKRSKQVCADPSESWVQEYVYDLELN
pKi_value [7]: 7.8
pKi_value [8]: 9.6

B9: CCL8 (protein, UniProt P80075 24-99, looked up)
C-C motif chemokine 8: QPDSVSIPITCCFNVINRKIPIQRLESYTRITNIQCPKEAVIFKTKRGKEVCADPKERWVRDSMKHLDQIFQNLKP
pIC50_value (receptor CCR2 (ccr2_human, P41597)): 8.6
pKi_value [8]: 9.3

B10: CCL24 (protein, UniProt O00175 27-119, looked up)
C-C motif chemokine 24: VVIPSPCCMFFVSKRIPENRVVSYQLSSRSTCLKAGVIFTTKKGQQFCGDPKQEWVQRYMKNLDAKQKKASPRARAVAVKGPVQRYPGNQTTC
pIC50_value [9]: 9.4

B11: CCL17 (protein, UniProt Q92583 24-94, looked up)
C-C motif chemokine 17: ARGTNVGRECCLEYFKGAIPLRKLKTWYQTSEDCSRDAIVFVTVQGRAICSDPNNKRVKNAVKYLQSLERS
pIC50_value [10]: 8.7

B12: CCL22 (protein, UniProt O00626 25-93, looked up)
C-C motif chemokine 22: GPYGANMEDSVCCRDYVRYRLPLRVVKHFYWTSDSCPRPGVVLLTFRDKEICADPRVPWVKMILNKLSQ
pIC50_value [10]: 9.2

B13: CCL21 (protein, UniProt O00585 24-134, looked up)
C-C motif chemokine 21: SDGGAQDCCLKYSQRKIPAKVVRSYRKQEPSLGCSIPAILFLPRKRSQAELCADPKELWVQQLMQHLDKTPSPQKPAQGCRKDRGASKTGKKGKGSKGCKRTERSQTPKGP
pIC50_value (receptor CCR7 (ccr7_human, P32248)): 9.3

B14: CCL1 (protein, UniProt P22362 24-96, looked up)
C-C motif chemokine 1: KSMQVPFSRCCFSFAEQEIPLRAILCYRNTSSICSNEGLIFKLKRGKEACALDTVGWVQRHRKMLRHCPSKRK
pIC50_value (receptor CCR8 (ccr8_human, P51685)): 9.8

B15: CXCL16 (protein, UniProt Q9H2A7 30-254, looked up)
C-X-C motif chemokine 16: NEGSVTGSCYCGKRISSDSPPSVQFMNRLRKHLRAYHRCLYYTRFQLLSWSVCGGNKDPWVQELMSCLDLKECGHAYSGIVAHQKHLLPTSPPISQASEGASSDIHTPAQMLLSTLQSTQRPTLPVGSLSSDKELTRPNETTIHTAGHSLAAGPEAGENQKQPEKNAGPTARTSATVPVLCLLAIIFILTAALSYVLCKRRRGQSPQSSPDLPVHYIPVAPDSNT
pKd_value (receptor CXCR6 (cxcr6_human, O00574)): 9

B16: CX3CL1 (protein, UniProt P78423 25-397, looked up)
Fractalkine: QHHGVTKCNITCSKMTSKIPVALLIHYQQNQASCGKRAIILETRQHRLFCADPKEQWVKDAMQHLDRQAAALTRNGGTFEKQIGEVKPRTTPAAGGMDESVVLEPEATGESSSLEPTPSSQEAQRALGTSPELPTGVTGSSGTRLPPTPKAQDGGPVGTELFRVPPVSTAATWQSSAPHQPGPSLWAEAKTSEAPSTQDPSTQASTASSPAPEENAPSEGQRVWGQGQSPRPENSLEREEMGPVPAHTDAFQDWGPGSMAHVSVVPVSSEGTPSREPVASGSWTPKAEEPIHATMDPQRLGVLITPVPDAQAATRRQAVGLLAFLGLLFCLGVAMFTYQSLQGCPRKMAGEMAEGLRYIPRSCGSNSYVLVPV
pIC50_value (receptor CX3CR1 (cx3c1_human, P49238)): 8.9

B17: XCL1 (protein, UniProt P47992 22-114, looked up)
Lymphotactin: VGSEVSDKRTCVSLTTQRLPVSRIKTYTITEGSLRAVIFITKRGLKVCADPQATWVRDVVRSMDRKSNTRNNMIQTKPTGTQQSTNTAVTLTG
pEC50_value [11]: 7.3

B18: XCL2 (protein, UniProt Q9UBD3 22-114, looked up)
Cytokine SCM-1 beta: VGSEVSHRRTCVSLTTQRLPVSRIKTYTITEGSLRAVIFITKRGLKVCADPQATWVRDVVRSMDRKSNTRNNMIQTKPTGTQQSTNTAVTLTG
pEC50_value [11]: 7.3
